Measured values taken from the Immune Epitope Database (IEDB).

Columns and labels:
Assay in all cases: IEDB peptide-MHC binding, purified MHC/competitive/radioactivity; filed as Kd, often an IC50 or EC50 that approximates it; ≥ and ≤ were set here for values at or beyond the usual limits of such assays
[1] = target: HLA-A*11:01
[2] = target: HLA-A*31:01
[3] = target: HLA-A*33:01
[4] = target: HLA-A*68:01
[5] = target: HLA-A*03:01
[6] = source organism: Vaccinia virus WR
[7] = source organism: Dengue virus 1 Singapore/S275/1990
[8] = source organism: Dengue virus 3 Martinique/1243/1999
[9] = source organism: SARS coronavirus Tor2
[10] = source organism: Dengue virus 1 Brazil/97-11/1997
[11] = source organism: Dengue virus 4 Philippines/H241/1956
[12] = source organism: Mammarenavirus guanaritoense
[13] = source organism: Dengue virus 2 Jamaica/1409/1983
[14] = source organism: Lymphocytic choriomeningitis virus (strain Armstrong)

In the case of IILSKIPYLR, the Kd [1, 6] is reported as 0.0407 µM, the Kd [2, 6] is reported as 0.00477 µM and the Kd [3, 6] is reported as 0.251 µM. It also gave a Kd [4, 6] of 0.000777 µM and a Kd [5, 6] of 0.0409 µM.
IINDKGKQY gave a Kd [1, 6] of 8.38 µM, a Kd [2, 6] of no less than 77.9 µM and a Kd [3, 6] of no less than 77.7 µM. For the same sequence, the Kd [4, 6] was no less than 77.7 µM and the Kd [5, 6] was 1.94 µM.
Sequence IINFTISMRY has a Kd [1, 6] of 0.00171 µM, a Kd [2, 6] of 1.42 µM and a Kd [3, 6] of 5.21 µM. The Kd [4, 6] was 0.69 µM and the Kd [5, 6] was 0.0353 µM.
In the case of IISEEYLSK, the Kd [1, 6] is reported as 0.027 µM, the Kd [2, 6] is reported as 10.1 µM and the Kd [3, 6] is reported as no less than 59.3 µM. It also gave a Kd [4, 6] of 7.85 µM and a Kd [5, 6] of 0.103 µM.
For ILARWGSFK, the Kd [1, 7] was 0.0778 µM and the Kd [5, 7] was 0.00213 µM.
ILKKLSSIK gave a Kd [1, 6] of 1.09 µM, a Kd [2, 6] of 3.18 µM and a Kd [3, 6] of 1.56 µM. For the same sequence, the Kd [4, 6] was 4.81 µM and the Kd [5, 6] was 0.00469 µM.
IMKSVGTGK showed a Kd [5, 8] of 0.00495 µM.
Work on INMLKRVRNR yielded a Kd [2, 8] of 1.57 µM.
IQFMMSRRR gave a Kd [1, 9] of 0.369 µM, a Kd [2, 9] of 0.0044 µM and a Kd [3, 9] of 1.44 µM. The Kd [4, 9] was 1.49 µM and the Kd [5, 9] was 0.353 µM.
For IQTSVNTVVR, the Kd [1, 6] was 14.2 µM, the Kd [2, 6] was 0.363 µM and the Kd [3, 6] was no less than 29.9 µM. For the same sequence, the Kd [4, 6] was 1.43 µM and the Kd [5, 6] was no less than 39.7 µM.
With ITANPIVTDK the Kd [1, 10] was 0.083 µM and the Kd [4, 10] was 0.0405 µM.
In the case of ITDMINASLK, the Kd [1, 6] is reported as 0.0812 µM, the Kd [2, 6] is reported as 10.6 µM and the Kd [3, 6] is reported as no less than 27.3 µM. The Kd [4, 6] was 0.0763 µM and the Kd [5, 6] was 0.151 µM.
With ITTDDLVKSY the Kd [1, 6] was 11 µM, the Kd [2, 6] was no less than 70 µM and the Kd [3, 6] was no less than 70 µM. The Kd [4, 6] was 1.02 µM and the Kd [5, 6] was no less than 70.1 µM.
Sequence KFGKNHIHR has a Kd [1, 6] of no less than 35.8 µM, a Kd [2, 6] of 0.00447 µM and a Kd [3, 6] of 5.31 µM. It also gave a Kd [4, 6] of no less than 49.1 µM and a Kd [5, 6] of 12.3 µM.
In the case of KFTILEYLY, the Kd [1, 6] is reported as 2.18 µM, the Kd [2, 6] is reported as 1.03 µM and the Kd [3, 6] is reported as 9.06 µM. For the same sequence, the Kd [4, 6] was 0.808 µM and the Kd [5, 6] was 7.09 µM.
KFVFPLNSK was tested, and the Kd [1, 9] was 1.27 µM, the Kd [2, 9] was 0.0744 µM and the Kd [3, 9] was no less than 53.6 µM. It also gave a Kd [4, 9] of 8.65 µM and a Kd [5, 9] of 0.17 µM.
For KILDAVVAQE, the Kd ([5]; source organism: Homo sapiens) was 0.847 µM.
With KIVNGVLSR the Kd [1, 6] was 0.0892 µM, the Kd [2, 6] was 1.4 µM and the Kd [3, 6] was 7.03 µM. For the same sequence, the Kd [4, 6] was 2.05 µM and the Kd [5, 6] was 0.328 µM.
With KLRPKWLDAR the Kd [2, 11] was 0.00211 µM.
KSDNIINIGY gave a Kd [1, 6] of 0.142 µM, a Kd [2, 6] of 3.87 µM and a Kd [3, 6] of no less than 48.6 µM. It also gave a Kd [4, 6] of 2.93 µM and a Kd [5, 6] of 0.106 µM.
In the case of KSKSFNHVLK, the Kd [1, 9] is reported as 0.0216 µM, the Kd [2, 9] is reported as 0.00654 µM and the Kd [3, 9] is reported as no less than 70 µM. For the same sequence, the Kd [4, 9] was 3.66 µM and the Kd [5, 9] was 0.00173 µM.
Work on KTAVNMLTH yielded a Kd [1, 12] of 0.216 µM, a Kd [2, 12] of 0.0453 µM and a Kd [3, 12] of no less than 77.7 µM. The Kd [4, 12] was no less than 44.8 µM and the Kd [5, 12] was 0.0101 µM.
Sequence KTVQFCDAMR has a Kd [1, 9] of 0.267 µM, a Kd [2, 9] of 0.00865 µM and a Kd [3, 9] of 1.53 µM. For the same sequence, the Kd [4, 9] was 0.0901 µM and the Kd [5, 9] was 1.79 µM.
Work on KVNSTLEQY yielded a Kd [1, 9] of 0.445 µM, a Kd [2, 9] of 2.59 µM and a Kd [3, 9] of no less than 50.4 µM. The Kd [4, 9] was 0.955 µM and the Kd [5, 9] was 0.0588 µM.
In the case of KVVQHENLK, the Kd ([5]; source organism: Dengue virus 3 Singapore/8120/1995) is reported as 0.049 µM.
KWLKECGVDR was tested, and the Kd [2, 11] was 0.364 µM.
For LGMMVLKIVR, the Kd [3, 13] was 1.91 µM.
LIGANYLGK was tested, and the Kd [2, 9] was 8.93 µM, the Kd [3, 9] was no less than 77.7 µM and the Kd [4, 9] was 10.9 µM.
LLVWHTWQK was tested, and the Kd [5, 8] was 0.059 µM.
LSSRATWAK was tested, and the Kd [1, 11] was 0.0565 µM.
MFEATARGAR showed a Kd [3, 10] of 0.0223 µM.
Sequence MVLLIPEPEK has a Kd [1, 8] of 0.115 µM.
In the case of NMLKRVRNR, the Kd [3, 8] is reported as 0.109 µM.
In the case of NMLSIINKR, the Kd [2, 8] is reported as 0.0421 µM and the Kd [3, 8] is reported as 0.023 µM.
In the case of NVTEVKGYTK, the Kd [4, 11] is reported as 0.0406 µM.
Work on QVAINQVRR yielded a Kd [4, 10] of 0.104 µM.
Work on RAGRVIDPR yielded a Kd [2, 11] of 0.0291 µM.
RLCTREEFTK showed a Kd [5, 8] of 0.0766 µM.
Sequence TAIFLTTLSR has a Kd [1, 13] of 0.298 µM and a Kd [4, 13] of 0.00283 µM.
For TFTNDSIISH, the Kd [2, 14] was no less than 64.7 µM, the Kd [3, 14] was 8.72 µM and the Kd [4, 14] was 6.85 µM. For the same sequence, the Kd [5, 14] was no less than 47 µM.
With TTETPTWNR the Kd [3, 8] was 0.00128 µM and the Kd [4, 8] was 0.0145 µM.
VFKEKVDTR gave a Kd [3, 8] of 0.0631 µM.
VTLFFLSGK showed a Kd [1, 10] of 0.0124 µM and a Kd [5, 10] of 0.00382 µM.
For YMIGQTGIQR, the Kd [3, 11] was 0.0792 µM and the Kd [4, 11] was 0.0983 µM.
YMTSMKRFK showed a Kd [5, 10] of 0.897 µM.
In the case of YMWQVKTQR, the Kd [2, 11] is reported as 0.00141 µM and the Kd [3, 11] is reported as 0.0013 µM.
